Experimental data published in the Immune Epitope Database (IEDB).
pIC50, pKd: −log10 of the molar value. Values belong to the sequence of their own block, whether it stands above or below them.

Key:
HLA-A*01:01 = assay: IEDB peptide-MHC binding, purified MHC/direct/fluorescence; filed as Kd, often an IC50 or EC50 that approximates it; ≥ and ≤ were set here for values at or beyond the usual limits of such assays; settings: source organism: Vibrio vulnificus
HLA-A*02:01 [1] = assay: as above; settings: source organism: Vibrio vulnificus
HLA-A*03:01 = assay: as above; settings: source organism: Vibrio vulnificus
HLA-A*11:01 [2] = assay: as above; settings: source organism: Vibrio vulnificus
HLA-A*24:02 [3] = assay: as above; settings: source organism: Vibrio vulnificus
HLA-A*26:01 = assay: as above; settings: source organism: Vibrio vulnificus CMCP6
HLA-A*31:01 [4] = assay: as above; settings: source organism: Vibrio vulnificus
HLA-A*69:01 = assay: as above; settings: source organism: Vibrio vulnificus
HLA-B*07:02 [5] = assay: as above; settings: source organism: Vibrio vulnificus
HLA-B*15:01 [6] = assay: as above; settings: source organism: Vibrio vulnificus
HLA-B*15:09 = assay: as above; settings: source organism: Vibrio vulnificus CMCP6
HLA-B*27:05 = assay: as above; settings: source organism: Vibrio vulnificus
HLA-B*40:01 = assay: as above; settings: source organism: Vibrio vulnificus
HLA-B*44:02 = assay: as above; settings: source organism: Vibrio vulnificus
HLA-B*46:01 = assay: as above; settings: source organism: Vibrio vulnificus
HLA-B*58:01 = assay: as above; settings: source organism: Vibrio vulnificus
HLA-C*05:01 = assay: as above
HLA-C*14:02 = assay: as above
HLA-C*15:02 = assay: as above; settings: source organism: Yersinia pestis Nepal516
HLA-B*07:02 [7] = assay: IEDB peptide-MHC binding, purified MHC/competitive/fluorescence; filed as Kd, often an IC50 or EC50 that approximates it; ≥ and ≤ were set here for values at or beyond the usual limits of such assays; settings: source organism: Yersinia pestis Nepal516
HLA-B*51:01 = assay: as above; settings: source organism: Yersinia pestis Nepal516
HLA-A*02:01 [8] = assay: IEDB peptide-MHC binding, purified MHC/competitive/fluorescence; ≥ and ≤ were set here for values at or beyond the usual limits of such assays; settings: source organism: Zaire ebolavirus
HLA-B*08:01 = assay: as above; settings: source organism: Zaire ebolavirus
HLA-A*02:01 [9] = assay: IEDB peptide-MHC binding, purified MHC/competitive/radioactivity; ≥ and ≤ were set here for values at or beyond the usual limits of such assays
HLA-A*24:02 [10] = assay: IEDB peptide-MHC binding, purified MHC/competitive/fluorescence; ≥ and ≤ were set here for values at or beyond the usual limits of such assays; settings: source organism: Zaire ebolavirus
HLA-B*15:01 [11] = assay: as above; settings: source organism: Zaire ebolavirus
HLA-A*68:02 = assay: IEDB peptide-MHC binding, purified MHC/competitive/fluorescence; filed as Kd, often an IC50 or EC50 that approximates it; ≥ and ≤ were set here for values at or beyond the usual limits of such assays; settings: source organism: Campylobacter jejuni subsp. jejuni 81-176
HLA-C*07:02 = assay: IEDB peptide-MHC binding, purified MHC/direct/fluorescence; filed as Kd, often an IC50 or EC50 that approximates it; ≥ and ≤ were set here for values at or beyond the usual limits of such assays
HLA-C*06:02 = assay: as above; settings: source organism: Influenza A virus (A/chicken/Fujian/25/00(H9N2))
HLA-A*02:01 [12] = assay: IEDB peptide-MHC binding, purified MHC/competitive/fluorescence; filed as Kd, often an IC50 or EC50 that approximates it; ≥ and ≤ were set here for values at or beyond the usual limits of such assays; settings: source organism: Influenza A virus (A/chicken/Fujian/25/00(H9N2))
HLA-A*11:01 [13] = assay: as above; settings: source organism: Listeria monocytogenes serotype 4b str. CLIP 80459
HLA-A*31:01 [14] = assay: as above; settings: source organism: Listeria monocytogenes serotype 4b str. CLIP 80459
HLA-A*68:23 = assay: as above; settings: source organism: Listeria monocytogenes serotype 4b str. CLIP 80459
HLA-B*15:42 = assay: as above; settings: source organism: Listeria monocytogenes serotype 4b str. CLIP 80459
HLA-B*45:06 = assay: as above; settings: source organism: Listeria monocytogenes serotype 4b str. CLIP 80459
HLA-B*83:01 = assay: as above; settings: source organism: Listeria monocytogenes serotype 4b str. CLIP 80459
[15] = source organism: Yersinia pestis Nepal516
[16] = source organism: Influenza A virus (A/chicken/Fujian/25/00(H9N2))

Sequence: QSDIAGAIH
pKd (HLA-A*01:01): 5.78
pKd (HLA-A*02:01 [1]): ≤ 4.70
pKd (HLA-A*03:01): ≤ 4.70
pKd (HLA-A*11:01 [2]): ≤ 4.70
pKd (HLA-A*24:02 [3]): ≤ 4.70
pKd (HLA-A*26:01): ≤ 4.70
pKd (HLA-A*31:01 [4]): ≤ 4.70
pKd (HLA-A*69:01): ≤ 4.70
pKd (HLA-B*07:02 [5]): ≤ 4.70
pKd (HLA-B*15:01 [6]): ≤ 4.70
pKd (HLA-B*15:09): ≤ 4.70
pKd (HLA-B*27:05): ≤ 4.70
pKd (HLA-B*40:01): ≤ 4.70
pKd (HLA-B*44:02): ≤ 4.70
pKd (HLA-B*46:01): ≤ 4.70
pKd (HLA-B*58:01): ≤ 4.70

Sequence: RAMKALSSI
pKd (HLA-C*05:01; [15]): ≤ 4.70
pKd (HLA-C*14:02; [15]): 6.38
pKd (HLA-C*15:02): 7.77
pKd (HLA-B*07:02 [7]): 7.90
pKd (HLA-B*51:01): 6.60

Sequence: RGVRLHPLA
pIC50 (HLA-A*02:01 [8]): ≤ 4.06
pIC50 (HLA-B*08:01): ≤ 3.62

Sequence: SAICSVVRR
pIC50 (HLA-A*02:01 [9]; source organism: Hepatitis B virus subtype adw2): 5.84

Sequence: SFKAALSSL
pIC50 (HLA-A*02:01 [8]): ≤ 3.45
pIC50 (HLA-A*24:02 [10]): 6.18
pIC50 (HLA-B*08:01): 4.34
pIC50 (HLA-B*15:01 [11]): 4.82

Sequence: SGKNIKRTL
pIC50 (HLA-B*08:01): 4.20

Sequence: SVAHSAYEL
pKd (HLA-A*68:02): ≥ 10.00

Sequence: TVFYNIPPM
pKd (HLA-C*14:02; source organism: Human herpesvirus 4 strain B95-8): 8.52

Sequence: VLEKGIPTL
pIC50 (HLA-A*02:01 [9]; source organism: Rhinovirus A): 6.70

pKd (HLA-C*07:02; source organism: Saccharomyces cerevisiae): 7.28
Sequence: VRKCLQLIF

Sequence: WMMAMRYPI
pKd (HLA-C*05:01; [16]): ≤ 4.70
pKd (HLA-C*06:02): ≤ 4.70
pKd (HLA-C*07:02; [16]): 5.74
pKd (HLA-A*02:01 [12]): 9.70

Sequence: YTYDLAEYR
pKd (HLA-A*11:01 [13]): 7.67
pKd (HLA-A*31:01 [14]): 8.08
pKd (HLA-A*68:23): ≥ 10.00
pKd (HLA-B*15:42): ≤ 5.30
pKd (HLA-B*45:06): ≤ 5.30
pKd (HLA-B*83:01): ≤ 5.30
